A word on the stoichiometry N: it is the number of molecules, sites or subunits per partner or assembly.

The text below walks through data of publication doi:10.1101/2020.07.24.212647 (bioRxiv, 2020).

Series [1] concerns the target Corynebacterium mustelae E2p catalytic domain (CmE2p_CD) (Corynebacterium mustelae). As to the kind of experiment: crystal structure.
Series [2] concerns the molecule itself. In words: crystal structure.
Series [3] concerns the molecule itself. As to the kind of experiment: AUC.
Series [4] concerns the molecule itself. In words: AUC. The source holds these as a separate data set.

Read-outs that look alike come from different tables or passages of the source.

“Corynebacterium mustelae E2p catalytic domain (CmE2p_CD) (domain or fragment)” yielded a stoichiometry N in series [1] of 3.

B1: C. glutamicum E2p catalytic core and peripheral subunit binding domain (CgE2p-ΔLBDs) (domain or fragment)
chain: YVTPLVRKLAEKHGVDLNTVTGTGIGGRIRKQDVLAAANGEAAPAEAAAPVSAWSTKSVDPEKAKLRGTTQKVNRIREITAMKTVEALQISAQLTQLHEVDMTRVAELRKKNKPAFIEKHGVNLTYLPFFVKAVVEALVSHPNVNASFNAKTKEMTYHSSVNLSIAVDTPAGLLTPVIHDAQDLSIPEIAKAIVDLADRSRNNKLKPNDLSGGTFTITNIGSEGALSDTPILVPPQAGILGTGAIVKRPVVITEDGIDSIAIRQMVFLPLTYDHQVVDGADAGRFLTTIKDRLETANFEGDLQL
Turning to B1, the binding result in series [2] is “binds”.

B2: C. glutamicum E2p catalytic domain (CgE2p_CD) (domain or fragment)
chain: LRGTTQKVNRIREITAMKTVEALQISAQLTQLHEVDMTRVAELRKKNKPAFIEKHGVNLTYLPFFVKAVVEALVSHPNVNASFNAKTKEMTYHSSVNLSIAVDTPAGLLTPVIHDAQDLSIPEIAKAIVDLADRSRNNKLKPNDLSGGTFTITNIGSEGALSDTPILVPPQAGILGTGAIVKRPVVITEDGIDSIAIRQMVFLPLTYDHQVVDGADAGRFLTTIKDRLETANFEGDLQL
For B2, the “stoichiometry N” value in series [3] worked out at 3.

B3: M. tuberculosis E2b, full-length (MtE2b_FL) (enzyme)
chain: MSGEDSIRSFPVPDLGEGLQEVTVTCWSVAVGDDVEINQTLCSVETAKAEVEIPSPYAGRIVELGGAEGDVLKVGAELVRIDTGPTAVAQPNGEGAVPTLVGYGADTAIETSRRTSRPLAAPVVRKLAKELAVDLAALQRGSGAGGVITRADVLAAARGGVGAGPDVRPVHGVHARMAEKMTLSHKEIPTAKASVEVICAELLRLRDRFVSAAPEITPFALTLRLLVIALKHNVILNSTWVDSGEGPQVHVHRGVHLGFGAATERGLLVPVVTDAQDKNTRELASRVAELITGAREGTLTPAELRGSTFTVSNFGALGVDDGVPVINHPEAAILGLGAIKPRPVVVGGEVVARPTMTLTCVFDHRVVDGAQVAQFMCELRDLIESPETALLDL
Regarding B3, the “stoichiometry N” value in series [4] is 24.

B4: C. glutamicum E2p, full-length (CgE2p_FL) (enzyme)
chain: MAFSVEMPELGESVTEGTITQWLKSVGDTVEVDEPLLEVSTDKVDTEIPSPVAGVILEIKAEEDDTVDVGGVIAIIGDADETPANEAPADEAPAPAEEEEPVKEEPKKEAAPEAPAATGAATDVEMPELGESVTEGTITQWLKAVGDTVEVDEPLLEVSTDKVDTEIPSPVAGTIVEILADEDDTVDVGAVIARIGDANAAAAPAEEEAAPAEEEEPVKEEPKKEAAPEAPAATGAATDVEMPELGESVTEGTITQWLKAVGDTVEVDEPLLEVSTDKVDTEIPSPVAGTIVEILADEDDTVDVGAVIARIGDANAAAAPAEEEAAPAEEEEPVKEEPKKEEPKKEEPKKEAATTPAAASATVSASGDNVPYVTPLVRKLAEKHGVDLNTVTGTGIGGRIRKQDVLAAANGEAAPAEAAAPVSAWSTKSVDPEKAKLRGTTQKVNRIREITAMKTVEALQISAQLTQLHEVDMTRVAELRKKNKPAFIEKHGVNLTYLPFFVKAVVEALVSHPNVNASFNAKTKEMTYHSSVNLSIAVDTPAGLLTPVIHDAQDLSIPEIAKAIVDLADRSRNNKLKPNDLSGGTFTITNIGSEGALSDTPILVPPQAGILGTGAIVKRPVVITEDGIDSIAIRQMVFLPLTYDHQVVDGADAGRFLTTIKDRLETANFEGDLQL
For B4, the “stoichiometry N” value in series [3] was found to be 3.
